Source: paper PMC6422423, “Constitutively active BRS3 is a genuinely orphan GPCR in placental mammals” (PLoS Biology, 2019)
Where no end group is shown, it is not given here.

Tests used:
Conditions in all cases: one partner purified
[1] = molecular target: T1, human bombesin receptor subtype-3 (human, UniProt P32247 1-399); assay: radioligand binding; displacement of 50 pM [125I]-Tyr42-GRP by unlabeled peptide on disaggregated transfected HEK293 cells; 1 h at 21°C; 24.5 mM HEPES pH 7.4, 98 mM NaCl; bound tracer separated by centrifugation
T1 construct: bombesin receptor subtype-3 of human (Homo sapiens); also called hBRS3; human BRS3; source: HEK293, transiently transfected, on cells
T1 sequence (looked up): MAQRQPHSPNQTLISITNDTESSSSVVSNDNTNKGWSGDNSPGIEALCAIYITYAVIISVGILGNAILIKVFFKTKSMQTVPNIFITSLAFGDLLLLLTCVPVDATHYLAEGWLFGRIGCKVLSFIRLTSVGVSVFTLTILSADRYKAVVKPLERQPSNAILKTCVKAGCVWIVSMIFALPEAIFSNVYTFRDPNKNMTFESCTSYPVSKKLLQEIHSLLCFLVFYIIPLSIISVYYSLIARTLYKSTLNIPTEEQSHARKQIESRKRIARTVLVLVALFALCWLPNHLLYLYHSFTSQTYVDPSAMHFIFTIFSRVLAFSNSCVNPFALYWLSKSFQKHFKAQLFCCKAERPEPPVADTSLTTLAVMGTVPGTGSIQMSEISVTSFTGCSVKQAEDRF

[2] = molecular target: T2, mouse bombesin receptor subtype-3 (mouse, UniProt O54798 1-399); assay: as above
T2 construct: bombesin receptor subtype-3 of mouse (Mus musculus); also called mBRS3; mouse BRS3; source: HEK293, transiently transfected, on cells
T2 sequence (looked up): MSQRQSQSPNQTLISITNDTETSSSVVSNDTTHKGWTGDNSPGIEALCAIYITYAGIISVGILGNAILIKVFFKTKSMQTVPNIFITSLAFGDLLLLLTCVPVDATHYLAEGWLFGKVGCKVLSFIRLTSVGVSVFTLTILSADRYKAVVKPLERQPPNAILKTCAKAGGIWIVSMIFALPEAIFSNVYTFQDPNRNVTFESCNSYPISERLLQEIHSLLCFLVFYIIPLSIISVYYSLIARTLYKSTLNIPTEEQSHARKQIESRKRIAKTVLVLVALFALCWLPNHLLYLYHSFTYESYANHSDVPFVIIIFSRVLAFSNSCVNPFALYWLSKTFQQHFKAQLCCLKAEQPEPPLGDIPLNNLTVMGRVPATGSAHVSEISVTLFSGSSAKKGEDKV

[3] = molecular target: T1, human bombesin receptor subtype-3; assay: radioligand binding; displacement of 50 pM [125I]-Tyr-NMB by unlabeled peptide on disaggregated transfected HEK293 cells; 1 h at 21°C; 24.5 mM HEPES pH 7.4, 98 mM NaCl; bound tracer separated by centrifugation
[4] = molecular target: T2, mouse bombesin receptor subtype-3; assay: as above

B1: gastrin-releasing peptide, unlabeled ligand peptide of the radioligand binding assays (peptide)
peptide: APLQPGGSPALTKIYPRGSHWAVGHLM
modifications: ends and bridges not checked
notes: gastrin-releasing peptide, 27 residues; No C-terminal amide is printed for this peptide; also called GRP; source: synthetic peptide (Anhui Guoping Pharmaceutical)
Ki [1]: > 1000 nM | Ki [2]: > 1000 nM

B2: neuromedin B, unlabeled ligand peptide of the radioligand binding assays (peptide)
peptide: YKIKVNPRGNLWATGHFM
modifications: ends and bridges not checked
notes: The N-terminal Tyr may have been added for iodination (surmise); No C-terminal amide is printed for this peptide; also called NMB; source: synthetic peptide (Anhui Guoping Pharmaceutical)
Ki [3]: > 1000 nM | Ki [4]: > 1000 nM
